Experimental data taken from the supplement of paper PMC7125110.
± gives the standard error. Variants at the floor of the assay were thinned out.

B1: glmS ribozyme (parent)
chain: AUAAAAGCGCCAGAACUACAGAAAUGUAGUUGACGAGGAGGAGGUUUAUCGAAUUUUCGGCGGAUGCCUCCAAA

Variants of: B1
Test: self-cleavage kobs at 2500 uM GlcN6P; higher = faster cleavage; RNA array
Conditions: with glucosamine-6-phosphate
Method in brief: (§1)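 Glucosamine-6-phosphate (40 μM to 10 mM) in HEPES/KCl/Mg(OAc)2 buffer was flowed over sequenced MiSeq chips, and tiles were imaged over ~14 h. Barcoded ribozyme variants there had been transcribed in situ by E. coli RNA polymerase and were tracked through a hybridised Cy3 probe at 37 °C. One- or two-exponential decay fits to per-tile medians, normalised to baseline and to non-cleaving reference variants, gave kobs. kcat and KM came from weighted Michaelis–Menten fits across concentrations.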

Row | Variant | self-cleavage kobs at 2500 uM GlcN6P [s⁻¹]
1 | C10A G59C G66A C67A | < 1e-05
2 | G7U C11U A12U G38C G43U U54A | < 1e-05
3 | A12C A52U C67U | 0.000185 ± 4.2e-05
4 | U47C C61G | < 1e-05
5 | A12G G40U U46A C58U | < 1e-05
6 | G44U A52G C67U U69G | < 1e-05
7 | G35C C50G U54G | 8.42e-05 ± 1.5e-05
8 | A14C G60U C68U | < 1e-05
9 | G13U A14C G32U C61G | < 1e-05
10 | A15G A52U C70U | 0.000255 ± 6.5e-05
11 | U31G U49G G59C | < 1e-05
12 | U30G A33G A42G G43U C70A | < 1e-05
13 | C16A G32U G43U C61G | < 1e-05
14 | U31C C58A C61U A64U | < 1e-05
15 | A14U C16G G38C G41C U47G | < 1e-05
16 | C50G A52C U69C C70A | 0.000257 ± 8e-05
17 | G51U A53G U69G | 4.29e-05 ± 2e-05
18 | G32C U54G A64U | < 1e-05
19 | A36C G41C A42U U46C | < 1e-05
20 | C50A A53G C58G C68A | 0.000108 ± 3.9e-05
21 | A6C G9C G35A A52G C68U | < 1e-05
22 | U30G C34A C68U | < 1e-05
23 | C34U G59A C71U | < 1e-05

Row | Variant | self-cleavage kobs at 2500 uM GlcN6P [s⁻¹]
24 | U31A G32A A64G | 0.000169 ± 4.6e-05
25 | G32C G51U U56C | < 1e-05
26 | G44A A48G U55A | < 1e-05
27 | G7A C10G G37U | < 1e-05
28 | C16G G51A G60A G63A C70A | 4.28e-05 ± 1.9e-05
29 | A14U G66A C70U | 0.00125 ± 0.00031
30 | U31C G59A G66U | < 1e-05
31 | A14U U30A C71G | 5.1e-05 ± 1.2e-05
32 | G26A U30C | 0.000125 ± 3.9e-05
33 | A12U A15G U45C C50G C61A | < 1e-05
34 | G7U G35C G43A A48G | < 1e-05
35 | C11G G29U A48U G51U C71G | 0.000485 ± 0.00016
36 | C11U U55A C58G | 5.84e-05 ± 1.6e-05
37 | A15G A64C G66A | 0.000144 ± 4.8e-05
38 | A52G A53U G66C C67G | < 1e-05
39 | G32U A42G C58G C70U | 0.000198 ± 8.4e-05
40 | G7C C11G G37U C58U | < 1e-05
41 | G43U U45C C71G | < 1e-05
42 | A33U C34A G44U A52C | < 1e-05
43 | U47G G62U G63U U65G | < 1e-05
44 | U30A G38A A39G C58A G63C C71A | < 1e-05
45 | U30G G44A | 6.16e-05 ± 1.7e-05
46 | G29U G32U C50G | 6.06e-05 ± 2.9e-05

Row | Variant | self-cleavage kobs at 2500 uM GlcN6P [s⁻¹]
47 | U31A G32U U45G | 0.000148 ± 5.6e-05
48 | G7U G13U A42U G44C | < 1e-05
49 | C11A U65G C70G C71A | 0.000187 ± 6.3e-05
50 | A39G A64G U69A | 0.00038 ± 0.00012
51 | A12G A14C A64G | 4.13e-05 ± 1.6e-05
52 | A15U G41C | 2.7e-05 ± 1.2e-05
53 | C10G A12U G13C G32A | < 1e-05
54 | G41C U45A U56G C67G C70G | 0.00118 ± 0.00023
55 | A33U C34U A39C | < 1e-05
56 | G43C U56A G62A | < 1e-05
57 | G9U C11G A12G A48U G51C | < 1e-05
58 | G7A G9C A36C | < 1e-05
59 | U30A U46G C68G | 0.000143 ± 6.7e-05
60 | C10A A15C A42C | < 1e-05
61 | C11U U30G U45G | 0.000105 ± 4e-05
62 | C16A A36G U65G | < 1e-05
63 | G32C C50G U55A U56G U57C | 0.000162 ± 5.8e-05
64 | G13U U55A C58A | 0.001 ± 0.00012
65 | A1U G41U C70G C71U | 0.000249 ± 4e-05
66 | A52G U57A C58G C71U | 7.76e-05 ± 2.9e-05
67 | C11A G51C G63U | < 1e-05
68 | G13A C34G G35A G41A U65A G66U | < 1e-05
69 | A14G C16U A53U | 0.0165 ± 0.0044

Row | Variant | self-cleavage kobs at 2500 uM GlcN6P [s⁻¹]
70 | G7U C8U G32U C50U | < 1e-05
71 | A12G G13C G29A G40A U45C | < 1e-05
72 | U47C U54A C70U | 0.00241 ± 0.00052
73 | G35C A42U A48C G63U | < 1e-05
74 | G9C A15U G66C C70G | < 1e-05
75 | C8U G32C C70U | < 1e-05
76 | C16U A39U U54G | 0.00743 ± 0.0018
77 | U31A C34G A48G | < 1e-05
78 | C34G A39G G60U | < 1e-05
79 | A42G C61A U65C | < 1e-05
80 | A6U A39G C70U | 8.18e-05 ± 3.2e-05
81 | G13U A39C U56G | 3.76e-05 ± 1.4e-05
82 | U46C G60U G62U G63C | < 1e-05
83 | U30G A33C G66U | < 1e-05
84 | A14U U55G C58G | 5.25e-05 ± 1.2e-05
85 | U31C A36G G41A G60U | < 1e-05
86 | G9C A14G U69G | < 1e-05
87 | G7U C16U A36G G37U G41U C61A | < 1e-05
88 | A6G C34A C50U U69A | < 1e-05
89 | A52U A53C C67G | < 1e-05
90 | G37A A52U U57A | 8.64e-05 ± 3.1e-05
91 | C34U G41A A52U | < 1e-05
92 | C8A C10G A39C | < 1e-05

Row | Variant | self-cleavage kobs at 2500 uM GlcN6P [s⁻¹]
93 | C10A A12C U30A U31A | 5.52e-05 ± 2.3e-05
94 | G13U C67U C70U | 6.19e-05 ± 2.3e-05
95 | G7U A52U U55C | < 1e-05
96 | G40C A52G G60A | < 1e-05
97 | U46G A48U G59U U69C | < 1e-05
98 | A6G U54G C70U | 0.0001 ± 2.2e-05
99 | C11U U30G U45A | 0.00111 ± 0.00024
100 | A48C G51A C70G | < 1e-05
101 | G9U A39G G44C C67G | < 1e-05
102 | A6U C58A C67A | < 1e-05
103 | G38A G40A G44U G60C | < 1e-05
104 | C10G G32U G62U U65G | < 1e-05
105 | C10U A42C G43U C67A | < 1e-05
106 | A33U G35U G51C A64U | < 1e-05
107 | A15U G37U G43C U56A C68G C71G | < 1e-05
108 | G38A U49A C50A | < 1e-05
109 | G29A C50G U55A | 0.000211 ± 8.8e-05
110 | A12G U31A U45A | 0.000216 ± 6.4e-05
111 | C8G C58U C61U G63U C68U | < 1e-05
112 | C8G A39C C58U | < 1e-05
113 | A6U G9C A33C C50G A52C U56C C68A C71U | < 1e-05
114 | A6G U30A A39G | 8.54e-05 ± 2.8e-05
115 | G13C A36G A64U C70G | < 1e-05

Row | Variant | self-cleavage kobs at 2500 uM GlcN6P [s⁻¹]
116 | A39C G40A | 0.000126 ± 3.1e-05
117 | A6C A36G C61G G66A | < 1e-05
118 | A33C G38A C58U U65C | < 1e-05
119 | U57C C58A C67G | 0.000113 ± 5.6e-05
120 | C11U G40U A42U G44A | < 1e-05
121 | A42G G43U G60U C61A | < 1e-05
122 | G32U U46C C68A C71U | < 1e-05
123 | A6U G9A C68U | < 1e-05
124 | C10G G43U U46C | < 1e-05
125 | C16G C34U A36C | < 1e-05
126 | A53U C67A C70A | 5.59e-05 ± 2.7e-05
127 | G32C U54C | 1.41e-05 ± 5.6e-06
128 | C34A G37U U46G U65G | < 1e-05
129 | C11U U30C A52G A64U | < 1e-05
130 | G13C A14C G35C | < 1e-05
131 | G32A A53U U56A C71U | 4.22e-05 ± 1e-05
132 | G9C A42C A48C C58G C71G | < 1e-05
133 | U47G G62A C70G | 0.000139 ± 3.4e-05
134 | U54G C67G C70U C71U | 0.000105 ± 1.9e-05
135 | G29C A33U G62A A64U | < 1e-05
136 | A12G G13U G51U G63U C70A | 0.000271 ± 9.9e-05
137 | A39U U49A U56G | < 1e-05
138 | G37A U65G C67A | 4.8e-05 ± 1.1e-05

Row | Variant | self-cleavage kobs at 2500 uM GlcN6P [s⁻¹]
139 | G13U A36C A42G C58U | < 1e-05
140 | A39U A48G U57A G60U C70G | < 1e-05
141 | G7A A33U C61G C70G | < 1e-05
142 | A12U G37U G38A | < 1e-05
143 | A14C A15C A36U G37U U49A | < 1e-05
144 | A42U A52U U55C C70G | < 1e-05
145 | A15G U45G U46C | 0.00283 ± 0.001
146 | G13A A33U A53C | < 1e-05
147 | A6C A14G C50U | < 1e-05
148 | A6G G51C G62A | < 1e-05
149 | G13C U55A | 6.85e-05 ± 1.6e-05
150 | C16G G37U A42G | < 1e-05
151 | C11U U54C G66U | 9.68e-05 ± 3.4e-05
152 | A12G A39C A42U | 3.14e-05 ± 1.5e-05
153 | G40A A48U C58A G60A | < 1e-05
154 | C11U C16U C61U | < 1e-05
155 | U46G A48G U49G G59A | < 1e-05
156 | A12U U31A C50G C61U | 6.19e-05 ± 2.1e-05
157 | G29U G38U G66U C68A U69G | 0.000147 ± 5.8e-05
158 | G26U C67U | 0.000381 ± 0.00017
159 | A6G C11G U47A | < 1e-05
160 | A33C A36C G38U G41A G66C | < 1e-05

Variants of: B1
Test: self-cleavage kobs at 10000 uM GlcN6P; higher = faster cleavage; RNA array
Conditions: with glucosamine-6-phosphate
Method in brief: as §1

Row | Variant | self-cleavage kobs at 10000 uM GlcN6P [s⁻¹]
161 | U47C C61G | < 1e-05
162 | G35C C50G U54G | 0.000106 ± 1.6e-05
163 | A36C G41C A42U U46C | < 1e-05
164 | G44A A48G U55A | < 1e-05
165 | G7C C11G G37U C58U | < 1e-05
166 | U30A G38A A39G C58A G63C C71A | < 1e-05
167 | U30G G44A | 6.05e-05 ± 2e-05
168 | A1U G41U C70G C71U | 0.000232 ± 6e-05
169 | G37A A52U U57A | 0.000104 ± 1.9e-05
170 | G7U A52U U55C | < 1e-05
171 | C10U A42C G43U C67A | < 1e-05
172 | A6U G9C A33C C50G A52C U56C C68A C71U | < 1e-05
173 | G32C U54C | 8.23e-05 ± 1.2e-05
174 | A39U U49A U56G | < 1e-05
